# Laboratory results reported in patent publication CN105542008A (UNIV NANCHANG, dated 2016).
# B1: 抗前列腺特异性膜抗原单域重链抗体噬菌体阳性克隆 (VHH)
# VHH: QLQLVESGGGLVQPGGSLRLTCTTSGFSLRYHDIGWFRQAPGKEREGVSCITGSLGDPYVDESLQGRFTISRDDHKNMVYLRMNSLKSEDTALYYCAIVRGCKDHDAYADVRARGQGTQVTVSS
# notes: also called 针对前列腺特异性膜抗原的单域重链抗体阳性克隆; 展示本发明所述纳米抗体的噬菌体克隆; not shown: the fusion to the phage coat protein is not described
# Assays:
# 重组表达的PSMA胞外区蛋白 = biological target: T1, 重组表达的PSMA胞外区蛋白 (UniProt Q04609 44-750, limits assumed); assay: indirect phage-ELISA, PSMA extracellular domain coated at 5 μg/mL, HRP-anti-M13 detection
# T1 construct: extracellular domain; also called 前列腺特异性膜抗原膜外区; PSMA蛋白; not shown: His tag (purified on HisTrap, detected with anti-His antibody)
# T1 sequence (Q04609 44-750 limits assumed): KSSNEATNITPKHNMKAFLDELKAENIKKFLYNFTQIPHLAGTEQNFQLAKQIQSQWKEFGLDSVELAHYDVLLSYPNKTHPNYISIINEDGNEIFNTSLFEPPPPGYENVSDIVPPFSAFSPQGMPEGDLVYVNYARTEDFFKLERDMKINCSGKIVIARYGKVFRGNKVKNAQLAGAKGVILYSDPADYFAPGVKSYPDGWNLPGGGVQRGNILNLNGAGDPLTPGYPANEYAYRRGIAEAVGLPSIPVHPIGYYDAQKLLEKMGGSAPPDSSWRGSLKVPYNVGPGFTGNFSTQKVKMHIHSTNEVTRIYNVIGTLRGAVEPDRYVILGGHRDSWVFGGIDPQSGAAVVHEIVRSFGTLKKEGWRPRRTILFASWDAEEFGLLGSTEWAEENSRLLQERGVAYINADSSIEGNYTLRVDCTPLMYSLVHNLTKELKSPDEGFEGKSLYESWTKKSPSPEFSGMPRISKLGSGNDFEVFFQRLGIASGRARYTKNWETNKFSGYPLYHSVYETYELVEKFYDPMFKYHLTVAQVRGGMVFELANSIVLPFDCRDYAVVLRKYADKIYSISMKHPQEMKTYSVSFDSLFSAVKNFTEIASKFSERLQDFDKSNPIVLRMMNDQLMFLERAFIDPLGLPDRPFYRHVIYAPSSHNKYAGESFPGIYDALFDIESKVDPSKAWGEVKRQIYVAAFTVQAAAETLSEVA
# [1] = biological target: T2, 前列腺特异性膜抗原 (PSMA) on LNCaP cells (UniProt Q04609 1-750, limits assumed); assay: cell ELISA (HRP-anti-M13) and immunofluorescence on fixed LNCaP cells, with PSMA-negative MKN45 cells as comparison
# T2 construct: whole, on cells; also called LNCaP细胞(表达PSMA)
# T2 sequence (Q04609 whole entry): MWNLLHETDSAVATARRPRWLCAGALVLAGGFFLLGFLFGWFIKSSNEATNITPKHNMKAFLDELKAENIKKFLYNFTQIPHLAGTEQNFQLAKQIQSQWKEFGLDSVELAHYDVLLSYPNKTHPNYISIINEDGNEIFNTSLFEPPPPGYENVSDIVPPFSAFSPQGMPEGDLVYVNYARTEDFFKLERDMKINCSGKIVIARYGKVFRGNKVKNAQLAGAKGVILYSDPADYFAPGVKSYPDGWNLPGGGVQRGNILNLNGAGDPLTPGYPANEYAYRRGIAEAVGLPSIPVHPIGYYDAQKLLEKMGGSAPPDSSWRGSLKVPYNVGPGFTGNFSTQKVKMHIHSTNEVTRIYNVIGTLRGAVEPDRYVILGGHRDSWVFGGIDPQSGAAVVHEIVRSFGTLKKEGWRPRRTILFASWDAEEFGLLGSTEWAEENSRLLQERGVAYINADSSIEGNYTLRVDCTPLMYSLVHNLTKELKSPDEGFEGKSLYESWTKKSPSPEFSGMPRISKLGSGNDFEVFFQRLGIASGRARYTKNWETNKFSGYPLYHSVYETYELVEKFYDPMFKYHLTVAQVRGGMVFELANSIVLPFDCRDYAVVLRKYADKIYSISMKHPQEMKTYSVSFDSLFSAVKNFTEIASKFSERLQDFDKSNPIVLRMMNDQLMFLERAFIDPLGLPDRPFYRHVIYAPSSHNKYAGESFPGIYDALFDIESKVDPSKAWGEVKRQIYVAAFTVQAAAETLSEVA
binder,measurement,setting,value
B1,binding result,重组表达的PSMA胞外区蛋白,binds
same,binding result,[1],binds
